Here are results for 22 sequences from the DeepSol protein solubility set.

The nature of the data set: soluble on expression in E. coli; label from the status in PepcDB or PDB records.
For the sequence “MSLSKELAVTPKQSLEAVVSYFRSAHKEPDSAVRAIHHQPASEGEFSEMPAAVDSRLRAALAKRGIERLYTHQADAFDQIQAGKHVVIVTPTASGKTLCYNLPVLNLLLRDEGARAMYLFPTKALAEDQLHEFQGAVEEMGSEIRAFTYDGDTPQDARRAIRSRANVVLTNPDMLHSGILPHHTRWARYFENLRYIVIDELHYYRGVYGSHLANLLRRLSRICEFYNSKPQFICCSATIANPKELAEALTGEPFELVERNGAPRGEKFFIFYNPPVVNRQLGIRRSYIAETRRMALKFIENNLQTLVFANNRLATEVLVTYLKDACDRGPIPSETVRGYRGGYLPRERREIEQSLRAGKIRAVVATNALELGIDIGSLDAVVMAGYPGTIASSWQRAGRAGRRQSTSAAVMVASSAPLDQYIVEHPDYFFGRSPEHAYINPENLEIFLAHLKCAAFELPLRDDEKFGRHDLAEICRYLEEAGFLHHSAAAWHWTSDTYPADATSLRSVTSDNFVVVDITGEAKVIAEVSFPTALTTLHEKAIYLHEARQFHVERFDYDQRKAYVKSVDCDYYTDAIDYTQVKVLEEMEGEPQNGARRLHGDVRVTRQIVGFKKIKFYTMENVGAGKLNMPEQEMHTTAFWLHFPAAFLARFAEFTPTEKQSGISGLGNALRTVASLLLMCDPRDLGVALSEEIAGGLEAFEPNLYLYDNYPGGIGQSGPLYRLAPQLLRQTAGLLAACACEAGCPSCVGPSGETGERGKLVAARILAELMGTAEQITAEGHHHHHH”, the “soluble on expression in E. coli” value is “soluble”.

Consider “MSLTEILIVEDDDIIATLIERFLLQREYVVCAKVATGEDALYKAAEHLPDLVLMDINLAGKIDGITATKFITAIFHIPVIFLSGQDDETTLERATMAEPASFIIKPFNAKDLYSNIEIALHNDRILKRSKDYKGGKIRRIARAALSELDAYFILDKRGRIVFINPYGEHLLNVHRNDIILKPIGKYLTFYDTRQNTVFTDTFQDVIRESLVLGVRQHIAVKMSDNSFRHVVIQSTSIRDSENETIGMIVRMHMKTKSEEGHHHHHH”, for which the “soluble on expression in E. coli” value is “soluble”.

With “SKLSPIIMIPGSSATENRFDGLVRKLNQDRRGTKHSLLKVKVWNNGRITFEGKIRKNDNEPIIVIGFENNKDGYSNIKKQAKMMNQAFEALQNKYNFNNFKGLAHSNGGLIYTAFIENDLSDYDVKINSLMTIGTPYNFTETNIKNKSVMLADFIAAKENIPSTLHVYSVAGTITYDSDELVPDASVSAGKYIYQNQAKSYTEITVTGEDAQHSDLPTNDEVVDLIKQHIEGQGLRKKQKTKLEPQ”, the “soluble on expression in E. coli” value was “not soluble”.

On to “MKVFTFLLIIMVCLYNFGVRAAMDNSKHSDEAEKLLAELSARKGEGEGEGEGEGEGEGEGEPKSTVSVFYLQPEEVNTLSHQAKRGDGEAGFRLFLYYKLSNYDEEKSSQWLKIAANNGHATAQYRLYVELQEQGETKEANEWLQKIKLAASNNDSSAIWFLVNCYKNQGNKKEALQWAYKLKASKQPLDADRLIEELTKEQK”, for which the “soluble on expression in E. coli” value was “soluble”.

“MSFSLEMPQMLPAPRDCYAVPGKPGHSEPLTVVGWEHMDLKLFYPSALFSSWSIRTALYPLAVLRSQLQLQKQNTVYRSTFHAYSDISKREGFRGLYRGFWITVPQIGCSFIYSTIFEKCRAVLHEQGIQSVGGVAAVAGGLASFATQSIFVPTDIIAQYMMIYKNTDKLTAGHDKSVIDGVRNHVKNGSGLGTSVIKAIYKTDGILGFYRGFWASTAVYVPQMLTFWPSYYWMLGLFNKVPYRTLHPATNRSLLFDQAVAATLGGVISTVATNPMELFRVRLQVHRGSYSKTLETMLRDEKTAVFTKGLTPRIIANSMYSGLVVVGYEIVKRLCAKEEYKHRVKW”: the “soluble on expression in E. coli” value is “not soluble”.

Regarding “MGSDKIHHHHHHMSAQTRPAPGRHTIRVSEDDCGLGQFGGGAWLSDAALWPSDPSTGRPMTPIVMLTDLFLPSVWLADDMAVTVFAALGRESDAYNRTALRTFTIHQQSELEKIDAGHSKVVLHRRAAREMVRETVMLPRHFVGLQPFDERDAEEEAEDADNGAGMSKQLGRPYWLQDPIHAHPRHYFLSQFVESDLRQQDPAYDGLFADGTGYLFAEQRAKVLREGDTAGYFFIQFT”, the “soluble on expression in E. coli” value is reported as “not soluble”.

“ATRMAPVIMVPGSSASQNRFDSLITELGKETPKKHSVLKLTVQTDGTIKYSGSIAANDNEPFIVIGFANNRDGKANIDKQAVWLNTAFKALVKTYHFNHFYALGHSNGGLIWTLFLERYLKESPKVHIDRLMTIASPYNMESTSTTAKTSMFKELYRYRTGLPESLTVYSIAGTENYTSDGTVPYNSVNYGKYIFQDQVKHFTEITVTGANTAHSDLPQNKQIVSLIRQYLLAETMPDKVRQKNAQRVQN”: the “soluble on expression in E. coli” value is on record as “soluble”.

For “MIIPEYGRTLTPEEWRPVVDEMLEATHIIFTTHENSDGDGLGSQVALALALKALGKEVAIFNPTEVPPNYLFLKELHEINLFRDRDEESMQEFFLADLLVVLDANLHDRIGRLWPHVEFARQMSRLKVLCIDHHLEPEDFADITVCETYASSTGELVCDLVTALELRTGQQLFTPEVASALYAAIMTDTGSFRFPKTTPYTYRLAGMLVEKGADPELVYDRIYNAL”, the “soluble on expression in E. coli” value is recorded as “not soluble”.

Consider “MNNMTDLKAIQARSLEMAEYFVAFCKEHDLLCYLCGGGAIGALRNKGFIPWDDDLDFFMPRKDYEKLAELWPRYADERYFLSKSHKDFVDRNLFITIRDKKTTCIKPYQQDLDLPHGLALDVLPLDYYPKNPAERKKQVRWALIYSLFCAQTIPEKHGDLMKWGSRILLGLTPKSLRYRIWKKAEKEMTKYDLADCDGITELCSGPGYMRNKYPITSFEDNLFLPFEGTEMPIPIGYDVYLRTAFGDYMTPPPADKQVPHHDAVIADMDKSYTEYKGEYGGLEHHHHHH”, for which the “soluble on expression in E. coli” value is listed as “soluble”.

For the sequence “MAFSGSQAPYLSPAVPFSGTIQGGLQDGLQITVNGTVLSSSGTRFAVNFQTGFSGNDIAFHFNPRFEDGGYVVCNTRQNGSWGPEERKTHMPFQKGMPFDLCFLVQSSDFKVMVNGILFVQYFHRVPFHRVDTISVNGSVQLSYISFQNPRTVPVQPAFSTVPFSQPVCFPPRPRGRRQKPPGVWPANPAPITQTVIHTVQSAPGQMFSTPAIPPMMYPHPAYPMPFITTILGGLYPSKSILLSGTVLPSAQRFHINLCSGNHIAFHLNPRFDENAVVRNTQIDNSWGSEERSLPRKMPFVRGQSFSVWILCEAHCLKVAVDGQHLFEYYHRLRNLPTINRLEVGGDIQLTHVQT”, the “soluble on expression in E. coli” value is on record as “soluble”.

Turning to “MTTKDEVKTLWKLCFNDSDEFTDLYFKMRYKDEVNRVIREDGKIISALQMIPYPMTFCDEVISTSYISGACTHPDYRKHGAMKRLLKETHRCMYEDGVLLASLIPAEEWLFGYYARSGYAPVFGYAVEQVRVDRLCPAPGCRIEVCEFPGVEHYHYFDSRMHGRRSCIQHPKEDFLVIMADLRLGNGKLLVAWEADKIVGMAFTVMGDDTLYIKELLADTDAVQDTLLYEAAHIYKVQRMDYFIPSSADTLFLGMARVIRAEELLKVFAHKYPASELYIHIEGDEAIQENNGYYTVRDGFCFRERVPEKKYHTYTLDGFTRLLLEAEHPYMSLMLN”, the “soluble on expression in E. coli” value was “soluble”.

“MQGEALKDFLFDKADDMKAVDIVTLDVKEKSSVTDYMIVCTGTSKRHVASIAEHVANEAKLSGLQPLGMNGENEGEWVVLDMGSVMLHVMQEAPRELYQLEKLWGLEHHHHHH”: the “soluble on expression in E. coli” value was “not soluble”.

On to “TVESNWGGAILIGSDFDTVSATANVPSASGGSSAAGTAWVGIDGDTCQTAILQTGFDWYGDGTYDAWYEWYPEVSDDFSGITISEGDSIQMSVTATSDTSGSATLENLTTGQKVSKSFSNESSGSLCRTNAEFIIEDFEECNSNGSDCEFVPFASFSPAVEFTDCSVTSDGESVSLDDAQITQVIINNQDVTDCSVSGTTVSCSYV”, for which the “soluble on expression in E. coli” value was “soluble”.

For “MGSDKIHHHHHHMEKFGLKALVPLLKLEDKELSSTYDHSMTLGADLSSMLYSLGIPRDSQDHRVLDTFQSPWAETSRSEVEPRFFTPESFTNIPGVLQSTVTPPCFNSIQNDQQRVALFQDETLFFLFYKHPGTVIQELTYLELRKRNWRYHKTLKAWLTKDPMMEPIVSADGLSERGSYVFFDPQRWEKCQRDFLLFYNAIM”, the “soluble on expression in E. coli” value is listed as “not soluble”.

On to “MANTITADEIREHFSQAMSAMYQQEVPQYGTLLELVADVNLAVLENNPKLHEQLANADELARLNVERHGAIRVGTAEELSTLRRIFAIMGMYPVSYYDLSQAGVPVHSTAFRPIDEASLSRNPFRMFTSLLRLELIENAALRQRAAEILSQRDIFTSRCRQLLDEYDEQGGFSAAQAEEFVRETLETFRWHRQATVDEETYRSLHREHRLIADVVCFPGCHINHLTPRTLDIDRVQAMMPECGITPKILIEGPPRREVPILLRQTSFKALEEQVLFVDEKQGTHTARFGEIEQRGVALTPKGRRLYDELLHKAGTGKDNFTHQLHLREVFNAFPDSEFLLRQQGLAWFRYRLTPSGEAHRQAIHPGDDPQPLIERGWVIAQPITYEDFLPVSAAGIFQSNLGDETLARSHGNASRDAFEQALGCAVRDEFSLYQEAEERSKRRCGLLLEHHHHHH”, for which the “soluble on expression in E. coli” value is recorded as “not soluble”.

With “MGSDKIHHHHHHMKVKLLSALNDNNVDMAQTNSQRQLAMTIFAIAGEFDQNLPLNLCLILDRSGSMHGQPIKTVIQAVEGLIDRLKVGDRISVVAFSGSVEVIIPNQVIEDPESIKSQIKSKLSASGGTAIAEGLELGITELMKGTRGAVSQAFLLTDGHGESSLRIWKWDIGRDDNKRCLKLAQKAAKLNLTINTFGFGNSWNQDLLEKIADVGGGTLAHIEHPEQAVEQFSRLFGRIQSIGLTNAYLLLSLVPNVRLAELKPIAQVAPDTIELPVERETDGSFAVRLGDLMQDVERVVLANIYLGQLPEGKQAIGHLQIRYDDPMVNQEDLLSPLMPIYADVVRAYQPASNPQVQQSILALAKYRQTQLAEAKLLQGDRTGAATMLQTAAKTALQIGDKGAATVLQTSATRLQAGEELSEADLKKTRIVSKTVLQE”, the “soluble on expression in E. coli” value is reported as “not soluble”.

With “MSLTYEKIKQLRENREITQKEISNALDINVSVYNKIELGIRPLREEELTAIADFFNVSIDYLTGRTDNPTTPSNNQKEAGQNIISHFRLNTNDLSSDDIEELEKELIDFQEFLIKRAKERKEGGSHHHHHH”, the “soluble on expression in E. coli” value is listed as “soluble”.

For “SRTVALGIVAMACLVAIAHGGNFFQDAEVSWGQGRGKIVDGGRGLDLTLDRSSGSGFQSKSEYLFGKIDMQIKLVPGGWWNQELSDMSYRRMRWVQRKFMIYNYCTDAKRFPQGTPAECKLR”, the “soluble on expression in E. coli” value is on record as “soluble”.

Turning to “MRQHKTKYLHQYELQALLNELNLNNEVNWDYFILLIAKTGIRFAEALGVTPDDFDFAHQTLSISKTWDYKSNKSDFAPTKNNSSVRKVPLDWQTVIQFSQLTKKLPEDQPIFVQAKVYNDTVNHYLERLCKHASIPVISVHGLRHTHASLLLYAGVSIASVARRLGHSNMTTTQQTYLHIIQELENQDNDKVMKHLASLILEHHHHHH”, the “soluble on expression in E. coli” value is “soluble”.

On to “MSEKKAVIGVVTISDRASKGIYEDISGKAIIDYLKDVIITPFEVEYRVIPDERDLIEKTLIELADEKGCSLILTTGGTGPAPRDVTPEATEAVCEKMLPGFGELMRQVSLKQVPTAILSRQTAGIRGSCLIVNLPGKPQSIKVCLDAVMPAIPYCIDLIGGAYIDTDPNKVKAFRPKK”, for which the “soluble on expression in E. coli” value was “soluble”.

With “MSLEVISLSEKKGFNFNIIKNDPLDGHKGTNIGSISLDNIAPVFIDVANKEAFIDIGGMHARAKVEKGVKWITDKAAVEGDEAKEYWLCWVTTERNEQGPYYAGLTACYLLVNKAIRRGYKSMPEHVNMMDKSMKHHIIIDQIGDENKAILKDFLMNHDEGMWKHSSDALHQAFNEGHHHHHH”, the “soluble on expression in E. coli” value is “soluble”.

Regarding “MALELSRLPELLSRIDGYKGQPVTRLAVMLNLLVFIRSSELRYARWSEIDIDNSMWTIPAEREPLPGVKFSHRGSKMRTPHLVPLSKQVVAILAELQTWAGENGLIFTGAHDPRKPISENTVNKALRVMGYDTTQEVCGHGFRAMACSALIESGLWSRDAVERQMSHQERNGVRAAYIHKAEHLEERRLMLQWWADFLDANREKGISPFEYAKINNPLKLEHHHHHH”, the “soluble on expression in E. coli” value was “soluble”.
